{"source": "patent EP4582453A1", "about": "(Cichlid Inc., dated 2025)", "biological_target": "T1, human CTLA-4 protein overexpressed in the HEK293 cell line (human, UniProt P16410 36-223)", "T1 construct": "whole, on cells; also called CTLA-4/HEK293 cell line; CTLA-4 expressing cell line", "T1 sequence (looked up)": "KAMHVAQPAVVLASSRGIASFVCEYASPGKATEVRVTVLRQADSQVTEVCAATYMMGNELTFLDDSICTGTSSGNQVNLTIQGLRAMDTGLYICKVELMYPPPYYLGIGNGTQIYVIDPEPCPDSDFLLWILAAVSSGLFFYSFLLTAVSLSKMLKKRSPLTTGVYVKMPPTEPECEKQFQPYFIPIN", "test": "cell ELISA of HA-tagged scFv extract on CTLA-4-expressing HEK293 cells, anti-HA HRP"}
{"binder": "4B6 scFv (scFv, V domains shown, HA-tagged scFv) VH: EVQLLESGGGLVQPGGSLRLSCAASGFTFSGYSMSWVRQAPGKGLEWVSSISPSGGNTYYADSVKGRFTISRDNSKNTLYLQMNSLRAEDTAVYYCAKTSELFDYWGQGTLVTVSS VL: QSVLTQPPSASGTPGQRVTISCTGSSSNIGSNDVNWYQQLPGTAPKLLIYNDSHRPSGVPDRFSGSKSGTSASLAISGLRSEDEADYYCGTWDYSLSAYVFGGGTKLTV", "values": [{"measurement": "binding result", "result": "binds"}]}
{"binder": "3E4 scFv (scFv, V domains shown, HA-tagged scFv from a synthetic human scFv phage library, tested as an E. coli extract; VH and VL form one chain in the scFv) VH: EVQLLESGGGLVQPGGSLRLSCAASGFTFSNYAMSWVRQAPGKGLEWVSVIYYDGSNKYYADSVKGRFTISRDNSKNTLYLQMNSLRAEDTAVYYCARNTYRFDYWGQGTLVTVSS VL: QSVLTQPPSASGTPGQRVTISCSGSSSNIGNNAVTWYQQLPGTAPKLLIYSDSNRPSGVPDRFSGSKSGTSASLAISGLRSEDEADYYCGSWDSSLSGYVFGGGTKLTVL", "values": [{"measurement": "binding result", "result": "binds"}]}
